Experimental data taken from the nanobody polyreactivity screen of Harvey et al. (2022).

Experiment: yeast display, Sf9 membrane polyspecificity reagent, FACS + sequencing; frameworks hold sequencing errors
Procedure, shortened: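 Nanobodies from a synthetic yeast display library (Saccharomyces cerevisiae BJ5465), induced 36–48 hours with galactose, were stained 1 hour at 4 °C with 10% biotinylated, detergent-solubilized Sf9 membrane reagent, enriched on streptavidin microbeads, then FACS-sorted. Anti-HA (expression) and streptavidin (reagent binding) fluorescence set low and high (top ~1%) gates. Polyreactivity labels come from the gate of origin. Genes were colony-PCR amplified, MiSeq 2 × 250 sequenced and filtered by CDR length.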

Row | Sequence | polyreactivity (PSR sort gate)
1 | QVQLVESGGGLVQAGGSLRLSCAASGRIFDLYAMRWYRQAPGKESELVAAISIRGGSTYYADSVKGRFTISRDNAKNTVYLQMNSLKPEDTAVYYCAAEGPWLSDEYDYWGQGTQVTVSS | low polyreactivity
2 | QVQLVESGGGLVQAGGSLRLSCAASGRIFDLYTMGWYRQAPGKERELVAAISSSGGSTYYADSVKGRFTISRDNARNTVYLQMNSLKPEDTAVYYCNADWYYAGYGYWGQGTQVTVSS | low polyreactivity
3 | QVQLVESGGGLVQAGGSLRLSCAASGRIFDQYALGGSRQAPGKERELVAAITSGGSTYYADSVKGRFTISRDNAKNTVYLQMNSLKPEDTAVYYCAAEWQWYGYVLYKYYYWGQGTQVTVSS | high polyreactivity
4 | QVQLVESGGGLVQAGGSLRLSCAASGRIFDRNAMGWYRQAPGKERELVATISSGDTTDYADSVKGRFTISRDNAKNTVYLQMNSLKPEDTAVYYITIYNYWGQGTQVTVSS | low polyreactivity
5 | QVQLVESGGGLVQAGGSLRLSCAASGRIFDRNAMVWYRQEPWKERELVAAIDDSGGDTSYADSVKGRFTISRDNAKNTVYLQMNSLKPEDTAVYYCNAGYADFVTYPRYYYWGQGTQVTLSS | low polyreactivity
6 | QVQLVESGGGLVQAGGSLRLSCAASGRIFDRYAMGWYRQAPGKERELVAAITSSGGRTYYADSVKGRFTISRDNAKNTVYLQMYSLKPEDTAVYYCAARWYGGYNYWGQGTQVTVSS | high polyreactivity
7 | QVQLVESGGGLVQAGGSLRLSCAASGRIFDRYAMGWYRQAPGKERELVASITSSGGNTYYADSVKGRFTISRDNAKNTVYLQMNSLKPEDTAVYYCAKPQRVWQYGNYYYWGQGTQVTVSS | high polyreactivity
8 | QVQLVESGGGLVQAGGSLRLSCAASGRIFDRYAMGWYRQAPGKERELVATIDSGGSTNYADSVKGRFTISRDNAKNTVYLQMNSLKPEDTAVYYCAVVTHSGYWSYYYWGQGTQVTVSS | low polyreactivity
9 | QVQLVESGGGLVQAGGSLRLSCAASGRIFDSNAMGWYRQAPGKERELVAYITSGGRTYYADSVKGRFTISRDNAKNTVYLQMNSLKAEDTAVYYCAVRSYKRGPLDYWGQGTQVTVSS | high polyreactivity
10 | QVQLVESGGGLVQAGGSLRLSCAASGRIFDTNAMGWYRQAPGKERAFVAAISRSGGSTYYADSVKGRFTISRDNAKNTVYLQMNSLKPEDTAVYYCAARWYVLQPLGYDATHRKYYWGQGTQVTVSS | high polyreactivity
11 | QVQLVESGGGLVQAGGSLRLSCAASGRIFDTNAMGWYRQAPGKERELVAAISSGDTTNYADSVKGRFTISRDNAKNTVYLQMNSLKPEDTAVYYCAVYAISFGWSGWTYEDSWGQGTQVTVSS | low polyreactivity
12 | QVQLVESGGGLVQAGGSLRLSCAASGRIFDTYVMGWYRQAPGKERELVAAISGSGGSTYYADSVKGRFTISRDIAKNTVYLQMNSLKPEDTAVYYCAAARRYYAYRYDYWGQGTQVSVSS | high polyreactivity
13 | QVQLVESGGGLVQAGGSLRLSCAASGRIFDVNAMGWYRQAPGKERELVAAIRSGGRTNYADSVNGRFTISRDNAKNTVYLQMNSLKPEDTAVYYCAAVVWSSLDDYWGQGTQVTVSS | high polyreactivity
14 | QVQLVESGGGLVQAGGSLRLSCAASGRIFDVNVMGWYRQAPGKERELVADISSGGGTDYADSVKGRFTISRDNAKNTVYLQMNILKQEDTAVYSCDWGQGTQVTVSS | low polyreactivity
15 | QVQLVESGGGLVQAGGSLRLSCAASGRIFDVYAMGWYRQAPGKERELVAAITWSGGRTYYADSVKGRFTISRDNAKNTVYLQLNSLKPEDTAVYYCAAEKPYVRGYLWTYDYWGQGTQVTVSS | low polyreactivity
16 | QVQLVESGGGLVQAGGSLRLSCAASGRIFDWNAVGWYRQAPGKERELVAAITWTGGTTYYADSVKGRFTISRDNAKNTVYLQMNSLKPEDTAVYYCAKRGGNQFAYRARSFDYWGQGTQVTLSS | low polyreactivity
17 | QVQLVESGGGLVQAGGSLRLSCAASGRIFDWNTMGWYRQAPGKERELVAAISYDGSTYYADSVKGRFTISRDNAKNTVYLQMNSLKPEDTAVYYCNAYPLTQYFAQGYDYWGQGTQVTVSS | low polyreactivity
18 | QVQLVESGGGLVQAGGSLRLSCAASGRIFDWNVMGWYRQAPGKERELVAVINDSTGTTYYADSVKGRFTISRDNAKNTVYLQMNSLKPEDTAVYYCSADWSVFTYFYGYDYWGQGTQVTVSS | low polyreactivity
19 | QVQLVESGGGLVQAGGSLRLSCAASGRIFDWYAMGWYRQAPGKERELVAAISTSGANTYYADSVKGRFTISRDNAKNTVYLQMNSLKPEDTAVYYCATDPYQPYEGDYWGQGSQVTVSS | low polyreactivity
20 | QVQLVESGGGLVQAGGSLRLSCAASGRIFDYNTLGWYRQAPGKERELVAAISASGTRTYYADSVKGRFTISRDNAKNTVYLQMNSLKPEDTAVYYCAAVYSYIASYLRYDYWGQGTQVTVSS | high polyreactivity
21 | QVQLVESGGGLVQAGGSLRLSCAASGRIFDYYAMGWYRQAPGKERELVAAISLIGASTYYADSVKGRFTISRDNAKNTVYLQMNSLKPEDTAVYYCAAEFYLRRFKVTKRYWFDYWGQGTQVTVSS | low polyreactivity
22 | QVQLVESGGGLVQAGGSLRLSCAASGRIFDYYDMGWYRQAPVKERELVAAITSSGTSTYYADSVKGRFTISRDNAKNTVYLQMNSLKPEDTAVYYCNARSIRPWGENGFWGQGTQVTVSS | high polyreactivity

Row | Sequence | polyreactivity (PSR sort gate)
23 | QVQLVESGGGLVQAGGSLRLSCAASGRIFDYYPKGWYRQAPGKERELVAAISVRGGSTYYADSVKGRFTISRDNAKNTVYLQMNSLKPEDTAVYYCAARSWPHRTYYYWGQGTQVTVSS | high polyreactivity
24 | QVQLVESGGGLVQAGGSLRLSCAASGRIFEDYAMGWYRQAPGKERELVARISSGDSTNYADSVKGRFTISRDNAKNTVYLQMNSLKPEDTAVYYCNADRGDLYELRGSGYLDGYWGQGTQVTVSS | low polyreactivity
25 | QVQLVESGGGLVQAGGSLRLSCAASGRIFEFNAMGRYIQAPGKERELVARISYSGGSTYYADSLKGRFTISRDNAKNTVYLQMNSLKPEDTAVYYCAAKPSRYFYNAWGYRQVYQYDYWGQGTQVTVSS | high polyreactivity
26 | QVQLVESGGGLVQAGGSLRLSCAASGRIFEHYPMGWYRPAPGKERELVAAISRSGGRTYYADSVKGRFTISRDNAKNTVTLQMNSVKPEDTEVDYCAAVGVYWYVYPHEYDYWGQGSQVTVSS | high polyreactivity
27 | QVQLVESGGGLVQAGGSLRLSCAASGRIFEKYAMGWYRQAPGKERELVAAISYSGGSTYYADSVKGRFTISRDNAKNTVYLQMNSLKPEDTAVYYCARYSRTQAYDYWGQGTQVTVSS | high polyreactivity
28 | QVQLVESGGGLVQAGGSLRLSCAASGRIFENNAMGWYRPAPGKERELVAAITSGGSTYYADSVKGRFTISRDNAKNTVYLQMNSLKPEDTAVYYCNVTFRVDPWTRTGYDYWGQGTQVTVSS | high polyreactivity
29 | QVQLVESGGGLVQAGGSLRLSCAASGRIFERYAMGWYRQAPGKERELVAAISGGGSTYYADSVKGRFTISRDNAKNTVYLQMNSLTPEDTAFYYCNTRGNSRMDYWGQGTQVTVSS | high polyreactivity
30 | QVQLVESGGGLVQAGGSLRLSCAASGRIFEVYTMGWYRQAPGKERELVAAIDRSTGSTYYADSVKGRFTISRDNAKNTVYLQMHSLKPEDTAVYYCAARGTFLGTRPLGRFDYWGQGTQVTVSS | low polyreactivity
31 | QVQLVESGGGLVQAGGSLRLSCAASGRIFEYAMGWYRQAPGKERELVAGITRSSSTNYADSVKGRFTISRDNAKNTVYLQKNSLKPEDTAVYYCNAESRSWYLYHYDYWGQGTQVTVSS | low polyreactivity
32 | QVQLVESGGGLVQAGGSLRLSCAASGRIFFGYAMGWYRQAPGKERELVATISYNDTSTYYADSVKGRFTISRDNAKNTVYLQMNSLKPEDTAVYYCAKSLGAPASDDYWGQGTQVTVSS | low polyreactivity
33 | QVQLVESGGGLVQAGGSLRLSCAASGRIFFHYAMGWYRQPPGKERELVAVISSSGGITYYADSVKGRFTISRDNAKNTVYLQMNSLKPEDTAVYYCNTVPRPFDRYGYWGQGTQVTVSS | low polyreactivity
34 | QVQLVESGGGLVQAGGSLRLSCAASGRIFFNYAMGWYSQAPGKERELVAAIRGGGSTYADSVKGRFTISRDNAKNTVYLQLNSLKPADTAVYYCAARYSGSPYHTRRYYYWGQGTQVTVSS | high polyreactivity
35 | QVQLVESGGGLVQAGGSLRLSCAASGRIFFPNPMGWYRQAPGKDREFVAGITVSGGSTYYADSVKGRFTISRDNAKNTVYFQMNSLKPEDTAVYYCGAYWAQGTRYEYRLNYWGQGTLVTVSS | low polyreactivity
36 | QVQLVESGGGLVQAGGSLRLSCAASGRIFFRYVMGWYRQAPGKERELVAAISSGGRTYYADSVKGRFTISRDNAKNTVYLQMNSLKPEDTAVYYCAADLLLYSSQDNDYWGQGTQVTVSS | low polyreactivity
37 | QVQLVESGGGLVQAGGSLRLSCAASGRIFFSNAMGWYRQAQGKEREMVASITGGDDTNYADSVKGRFTISRDNAKNTVYLQMNSLKPEDTAVYYCAARAIPSYRWFYRFAPKYDYWGQGTQVTVSS | low polyreactivity
38 | QVQLVESGGGLVQAGGSLRLSCAASGRIFFTYAMGWYRQAPGKERELVASITGSGGSTYYADSVKGRFTISRDNAKNTVYLQMNSLQPEETAVYYCAAALFPRQLYRKFYYWGQGTQVTVSS | low polyreactivity
39 | QVQLVESGGGLVQAGGSLRLSCAASGRIFFVNAMGWYRQAPGKERELVAAISRGGSTNYADSVKGRFTISRDNAKNTVYLQMNSLKPEDTEVYYCNADGSSYWYPVPLDGGDYWGQGTQVTVSS | low polyreactivity
40 | QVQLVESGGGLVQAGGSLRLSCAASGRIFFVYAMGWYRQAPGKERELVAAITASGGSTYYADSVKVRFTISRDNAKNSVYLQMNSLNPEDTAVYDCAAAGYGWGGYREYGWGQGTQVTVSS | low polyreactivity
41 | QVQLVESGGGLVQAGGSLRLSCAASGRIFFWYAMGWYRQAPGKERELVASINWSGVSTYYADSVKGRFTISRDNAKNTVYLQMNSLKPEDTAVYYCNRVRGLYWQRHGYWGQGTQVTVSS | high polyreactivity
42 | QVQLVESGGGLVQAGGSLRLSCAASGRIFFYAMGWYRQAPGKERELVASITTSGTSTYYADSVKGRFTISRDNAKNTVYLQMNSLKPEDTAVYYCNATSNSIRWYDFYYWGQGTQVTVSS | low polyreactivity
43 | QVQLVESGGGLVQAGGSLRLSCAASGRIFFYYAKGWSRQAPGKARELVAAINRGGRTYYADSVKGRFTISRDNAKNTVYLQMNSLKPEDTADYYCAADCHTAKSNFDYWGQGTQVTVSS | low polyreactivity
